Consider four substances from publication PMC3445459.

Where only a bound is given, the exact number is not on record here.

In assay [1] the target is HIV-1 integrase E85F, 6xHis-tagged (HIV-1 (NL4-3)).
The target is the same in assay [2]. The source holds these as a separate data set.
Assay [3] has as its target HIV-1 integrase K103E, 6xHis-tagged (HIV-1 (NL4-3)).
The target of assay [4] is LEDGF/p75 (UniProt O75475). Briefly: AlphaScreen or HTRF; IN-LEDGF/p75 interaction assay as previously described (ref. 32), mutant IN proteins in place of WT; signal relative to WT IN. Background: Bead proximity is the source of the signal in Alpha formats.
Assay [5] deals with HIV-1 integrase W108F, 6xHis-tagged (HIV-1 (NL4-3)).

Sequence of UniProt O75475 (O75475 whole entry): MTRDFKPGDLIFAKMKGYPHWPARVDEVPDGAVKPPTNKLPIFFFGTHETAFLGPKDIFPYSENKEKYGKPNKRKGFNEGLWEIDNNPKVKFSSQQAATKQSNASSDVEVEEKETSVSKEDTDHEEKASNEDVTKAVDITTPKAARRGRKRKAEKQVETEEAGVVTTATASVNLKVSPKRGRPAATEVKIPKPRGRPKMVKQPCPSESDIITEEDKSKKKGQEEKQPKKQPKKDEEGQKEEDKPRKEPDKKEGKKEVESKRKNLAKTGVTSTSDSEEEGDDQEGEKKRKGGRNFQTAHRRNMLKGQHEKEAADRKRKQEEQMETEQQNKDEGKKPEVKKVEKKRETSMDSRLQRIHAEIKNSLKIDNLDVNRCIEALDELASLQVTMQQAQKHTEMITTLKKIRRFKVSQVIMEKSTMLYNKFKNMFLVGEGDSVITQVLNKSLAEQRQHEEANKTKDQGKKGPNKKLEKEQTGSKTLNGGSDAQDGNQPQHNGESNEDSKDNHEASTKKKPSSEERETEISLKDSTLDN

As to “HIV-1 integrase E85F, 6xHis-tagged (enzyme)”, in assay [1], the in vitro strand transfer activity with pre-processed 19-mer DNA substrate, relative to WT IN was 1.6 fold of WT. In assay [2], the in vitro strand transfer activity with 21-mer DNA substrate, relative to WT IN is 37 % of WT.

With “HIV-1 integrase K103E, 6xHis-tagged (enzyme)”, the in vitro strand transfer activity with pre-processed 19-mer DNA substrate, relative to WT IN in assay [3] was 29 % of WT. Consider “HIV-1 integrase K103G, 6xHis-tagged (enzyme)”, for which, in assay [4], the interaction relative to WT IN (of the WT interaction) is under 0.33 and the percent of the WT interaction level was 30 % of WT.

Consider “HIV-1 integrase W108F, 6xHis-tagged (enzyme)”, for which, in assay [5], the in vitro strand transfer activity with pre-processed 19-mer DNA substrate, relative to WT IN was 30 % of WT.
